Measured values reported in patent publication US20140044730A1 (Regeneron, published 2014).

Legend:
[1] = target: T1, human PCSK9 with a C-terminal myc-myc-hexahistidine tag (human, UniProt Q8NBP7 31-692, limits assumed); test: SPR 25C pH 6.0, purified mAb captured
T1 construct: also called hPCSK9-mmH; hPCSK9-mmh; not shown: C-terminal myc-myc-hexahistidine tag

[2] = target: T1, human PCSK9 with a C-terminal …; test: SPR 25C, purified mAb captured
Procedure: (§1) A Biacore CM4 sensor chip was derivatized with a monoclonal mouse anti-human Fc antibody to capture human antibodies. The histidine substitution variant anti-PCSK9 antibodies were captured onto the anti-human Fc sensor surface from culture medium after transient expression in Chinese hamster ovary (CHO) cells. […] Kinetic association (kₐ) and dissociation (kd) rate constants were determined by processing and fitting the data to a 1:1 binding model using Scrubber 2.0 curve fitting software. Binding dissociation equilibrium constants (KD) and dissociative half-lives (t_{1/2}) were calculated from the kinetic rate constants as: KD (M)=kd/kₐ; and t_{1/2} (min)=(In2/(60*kd).
Also included in these experiments were several control/comparator antibodies. All measurements were taken at 25° C.

[3] = target: T1, human PCSK9 with a C-terminal …; test: SPR 25C pH 7.4, purified mAb captured
Procedure: as §1
All measurements were taken at 25° C.

[4] = target: T1, human PCSK9 with a C-terminal …; test: SPR 25C pH 5.75, mAb captured;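 also: biacore surface with anti-human Fc antibody capturing the antibodies, PCSK9 as analyte, one-to-one kinetic fit, KD as kd over ka, half-life derived from kd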
Procedure: as §1

[5] = target: T1, human PCSK9 with a C-terminal …; test: SPR 25C, mAb captured;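 also: biacore CM4 surface bearing anti-human Fc antibody capturing the mAbs, PCSK9 binding and release rates fitted with a one-to-one model, KD and half-life derived from those rates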
Procedure: as §1

[6] = target: T1, human PCSK9 with a C-terminal …; test: SPR 25C pH 7.2, mAb captured;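 also: biacore SPR, antibodies captured on anti-human Fc CM4 chip with PCSK9 flowed as analyte, rate constants from a one-to-one kinetic fit, KD and half-life derived from them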
[7] = target: human PCSK9 with a C-terminal myc-myc hexahistidine tag and a D374Y mutation (human, UniProt Q8NBP7 31-692, limits assumed); test: cell-based or functional assay
[8] = target: recombinant cynomolgus monkey PCSK9 with a C-terminal myc-myc hexahistidine tag (cynomolgus monkey, UniProt A8T662 31-692 (Macaca nemestrina entry), limits assumed); test: cell-based or functional assay
[9] = target: T1, human PCSK9 with a C-terminal …; test: blocking ELISA pH 7.2, 500 pM hPCSK9-mmH vs coated hLDLR EGFA-hFc, exp #1
Source text: The equilibrated sample solutions were then transferred to the LDLR EGFA-hFc coated plate prepared as described above.

[10] = target: T1, human PCSK9 with a C-terminal …; test: blocking ELISA pH 5.75, 500 pM hPCSK9-mmH vs coated hLDLR EGFA-hFc
Procedure: (§2) Briefly, hLDLR EGFA-hFc was coated at 2 μg/mL in PBS on a 96-well microtiter plate overnight at 4° C. followed by blocking with a solution of 0.5% (w/v) BSA in PBS.
(§3) The equilibrated sample solutions were then transferred to a LDLR EGFA-hFc coated plate.

[11] = target: T1, human PCSK9 with a C-terminal …; test: blocking ELISA, hPCSK9-mmH vs coated hLDLR EGFA-hFc
Procedure: as §2, §3

[12] = target: T1, human PCSK9 with a C-terminal …; test: blocking ELISA pH 7.2, 500 pM hPCSK9-mmH vs coated hLDLR EGFA-hFc
Procedure: as §2, §3

[13] = target: T1, human PCSK9 with a C-terminal …; test: cell-based or functional assay

Kd [4]	t½ [4]	KD ratio pH 5.75/pH 7.2 [5]	t½ ratio pH 5.75/pH 7.2 [5]	Kd [6]	t½ [6]	IC50, LDL uptake in HepG2 cells, 2 nM hPCSK9-D374Y-mmH [7]	IC50, LDL uptake in HepG2 cells, 50 nM MfPCSK9-mmH [8]	IC50 [9]	Binder	other results
–	–	–	–	–	–	–	–	–	316P(v2) (antibody, IgG4, V domains shown, also called 316(v2)) VH: EVQLVESGGGLVQPGGSLRLSCAASGFTFNNYAMNWVRQAPGKGLDWVSTISGSGGTTNYADSVKGRFIISRDSSKHTLYLQMNSLRAEDTAVYYCAKDSNWGNFDLWGRGTLVTVSS VL: not shown	Kd [1]: 0.23 nM; koff [1]: 0.000149 s⁻¹; kon [1]: 649000 M⁻¹ s⁻¹; t½ [1]: 77.5 min; KD ratio pH 6.0/pH 7.4 [2]: 0.41; ka ratio pH 6.0/pH 7.4 [2]: 1.25; kd ratio pH 6.0/pH 7.4 [2]: 0.51; t½ ratio pH 6.0/pH 7.4 [2]: 1.96; Kd [3]: 0.566 nM; koff [3]: 0.000292 s⁻¹; kon [3]: 517000 M⁻¹ s⁻¹; t½ [3]: 39.5 min
4.67 nM	7 min	1.73	0.24	2.69 nM	28 min	2.6 nM	12.7 nM	0.334 nM	VH-D108H (antibody, V domains shown, His variant of 300N) VH: EMQLVESGGGLVQPGGSLRLSCAASGFTFSSHWMKWVRQAPGKGLEWVANINQDGSEKYYVDSVKGRFTISRDNAKNSLFLQMNSLRAEDTAVYYCARDIVLMVYDMHYYYYGMDVWGQGTTVTVSS VL: not shown	–
–	–	–	–	–	–	–	–	–	300N(v1) (antibody, IgG1, V domains shown) VH: EMQLVESGGGLVQPGGSLRLSCAASGFTFSSHWMKWVRQAPGKGLEWVANINQDGSEKYYVDSVKGRFTISRDNAKNSLFLQMNSLRAEDTAVYYCARDIVLMVYDMDYYYYGMDVWGQGTTVTVSS VL: not shown	IC50 [10]: 0.266 nM; Kd [1]: 1.18 nM; koff [1]: 0.000304 s⁻¹; kon [1]: 257000 M⁻¹ s⁻¹; t½ [1]: 38 min; IC50 ratio (pH 5.75/pH 7.2) [11]: 1.4; KD ratio pH 6.0/pH 7.4 [2]: 2.33; ka ratio pH 6.0/pH 7.4 [2]: 1.85; kd ratio pH 6.0/pH 7.4 [2]: 4.33; t½ ratio pH 6.0/pH 7.4 [2]: 0.23; IC50 [12]: 0.19 nM; IC50, LDL uptake in HepG2 cells, 100 nM hPCSK9-mmH [13]: 28 nM; Kd [3]: 0.507 nM; koff [3]: 7.03e-05 s⁻¹; kon [3]: 139000 M⁻¹ s⁻¹; t½ [3]: 164 min
1.74 nM	12 min	1.84	0.26	0.948 nM	48 min	–	–	–	VK-S57H (antibody, V domains shown, His variant of 300N) VH: EMQLVESGGGLVQPGGSLRLSCAASGFTFSSHWMKWVRQAPGKGLEWVANINQDGSEKYYVDSVKGRFTISRDNAKNSLFLQMNSLRAEDTAVYYCARDIVLMVYDMDYYYYGMDVWGQGTTVTVSS VL: not shown	–
7.63 nM	6 min	0.06	22.2	138 nM	0 min	–	–	–	VK-S28H (antibody, V domains shown, His variant of 300N) VH: EMQLVESGGGLVQPGGSLRLSCAASGFTFSSHWMKWVRQAPGKGLEWVANINQDGSEKYYVDSVKGRFTISRDNAKNSLFLQMNSLRAEDTAVYYCARDIVLMVYDMDYYYYGMDVWGQGTTVTVSS VL: not shown	–
29.5 nM	0.2 min	4.02	0.02	7.34 nM	13 min	4.6 nM	15.9 nM	0.704 nM	VH-M107H (antibody, V domains shown, His variant of 300N) VH: EMQLVESGGGLVQPGGSLRLSCAASGFTFSSHWMKWVRQAPGKGLEWVANINQDGSEKYYVDSVKGRFTISRDNAKNSLFLQMNSLRAEDTAVYYCARDIVLMVYDHDYYYYGMDVWGQGTTVTVSS VL: not shown	–
10.5 nM	3 min	1.43	0.14	7.33 nM	25 min	4.7 nM	17.2 nM	0.857 nM	VH-V101H (antibody, V domains shown, His variant of 300N) VH: EMQLVESGGGLVQPGGSLRLSCAASGFTFSSHWMKWVRQAPGKGLEWVANINQDGSEKYYVDSVKGRFTISRDNAKNSLFLQMNSLRAEDTAVYYCARDIHLMVYDMDYYYYGMDVWGQGTTVTVSS VL: not shown	–
4420 nM	0.2 min	72.3	0.54	61.2 nM	0 min	–	–	–	VK-Y37H (antibody, V domains shown, His variant of 300N) VH: EMQLVESGGGLVQPGGSLRLSCAASGFTFSSHWMKWVRQAPGKGLEWVANINQDGSEKYYVDSVKGRFTISRDNAKNSLFLQMNSLRAEDTAVYYCARDIVLMVYDMDYYYYGMDVWGQGTTVTVSS VL: not shown	–
47.6 nM	0.4 min	8.51	0.04	5.6 nM	11 min	4.7 nM	15.8 nM	0.331 nM	VH-V104H (antibody, V domains shown, His variant of 300N) VH: EMQLVESGGGLVQPGGSLRLSCAASGFTFSSHWMKWVRQAPGKGLEWVANINQDGSEKYYVDSVKGRFTISRDNAKNSLFLQMNSLRAEDTAVYYCARDIVLMHYDMDYYYYGMDVWGQGTTVTVSS VL: not shown	–
0.805 nM	20 min	0.88	0.41	0.914 nM	49 min	–	–	–	VK-Q98H (antibody, V domains shown, His variant of 300N) VH: EMQLVESGGGLVQPGGSLRLSCAASGFTFSSHWMKWVRQAPGKGLEWVANINQDGSEKYYVDSVKGRFTISRDNAKNSLFLQMNSLRAEDTAVYYCARDIVLMVYDMDYYYYGMDVWGQGTTVTVSS VL: not shown	–
1.21 nM	16 min	1.17	0.33	1.03 nM	49 min	–	–	–	VK-T102H (antibody, V domains shown, His variant of 300N) VH: EMQLVESGGGLVQPGGSLRLSCAASGFTFSSHWMKWVRQAPGKGLEWVANINQDGSEKYYVDSVKGRFTISRDNAKNSLFLQMNSLRAEDTAVYYCARDIVLMVYDMDYYYYGMDVWGQGTTVTVSS VL: not shown	–
12 nM	0.4 min	1.25	0.1	9.63 nM	5 min	–	–	–	VK-T99H (antibody, V domains shown, His variant of 300N) VH: EMQLVESGGGLVQPGGSLRLSCAASGFTFSSHWMKWVRQAPGKGLEWVANINQDGSEKYYVDSVKGRFTISRDNAKNSLFLQMNSLRAEDTAVYYCARDIVLMVYDMDYYYYGMDVWGQGTTVTVSS VL: not shown	–
55.7 nM	0.04 min	4.52	0.01	12.3 nM	5 min	4.7 nM	21.2 nM	0.506 nM	VH-Y112H (antibody, V domains shown, His variant of 300N) VH: EMQLVESGGGLVQPGGSLRLSCAASGFTFSSHWMKWVRQAPGKGLEWVANINQDGSEKYYVDSVKGRFTISRDNAKNSLFLQMNSLRAEDTAVYYCARDIVLMVYDMDYYYHGMDVWGQGTTVTVSS VL: not shown	–
